From patent US20240182536A1 (MURAL ONCOLOGY, published 2024) come the findings set out here.

First the molecules themselves.
B1: hIL18 (G3V, E6K, K53S, M60K) - KiH (Fc fusion)
chain: YFVKLKSKLSVIRNLNDQVLFIDQGNRPLFEDMTDSDMRDNAPRTIFIISMYSDSQPRGKAVTISVKSEKISTLSSENKIISFKEMNPPDNIKDTKSDIIFFQRSVPGHDNKMQFESSSYEGYFLASEKERDLFKLILKKEDELGDRSIMFTVQNED
B2: hIL18 (G3T, E6K, K53S, M60K) - KiH (Fc fusion)
chain: YFTKLKSKLSVIRNLNDQVLFIDQGNRPLFEDMTDSDMRDNAPRTIFIISMYSDSQPRGKAVTISVKSEKISTLSSENKIISFKEMNPPDNIKDTKSDIIFFQRSVPGHDNKMQFESSSYEGYFLASEKERDLFKLILKKEDELGDRSIMFTVQNED
B3: hIL18 (G3T, K53S, M60K) - KiH (Fc fusion)
chain: YFTKLESKLSVIRNLNDQVLFIDQGNRPLFEDMTDSDMRDNAPRTIFIISMYSDSQPRGKAVTISVKSEKISTLSSENKIISFKEMNPPDNIKDTKSDIIFFQRSVPGHDNKMQFESSSYEGYFLASEKERDLFKLILKKEDELGDRSIMFTVQNED
B4: hIL18 (G3T, K53A, M60K) - KiH (Fc fusion)
chain: YFTKLESKLSVIRNLNDQVLFIDQGNRPLFEDMTDSDMRDNAPRTIFIISMYADSQPRGKAVTISVKSEKISTLSSENKIISFKEMNPPDNIKDTKSDIIFFQRSVPGHDNKMQFESSSYEGYFLASEKERDLFKLILKKEDELGDRSIMFTVQNED
B5: hIL18 (G3V, K53A, M60K) - KiH (Fc fusion)
chain: YFVKLESKLSVIRNLNDQVLFIDQGNRPLFEDMTDSDMRDNAPRTIFIISMYADSQPRGKAVTISVKSEKISTLSSENKIISFKEMNPPDNIKDTKSDIIFFQRSVPGHDNKMQFESSSYEGYFLASEKERDLFKLILKKEDELGDRSIMFTVQNED

The target of this assay is T1, IL-18 receptor (IL-18Rα and IL-18Rβ) (UniProt Q13478 19-541; O95256 20-599, limits assumed).
T1 sequence (looked up) 1: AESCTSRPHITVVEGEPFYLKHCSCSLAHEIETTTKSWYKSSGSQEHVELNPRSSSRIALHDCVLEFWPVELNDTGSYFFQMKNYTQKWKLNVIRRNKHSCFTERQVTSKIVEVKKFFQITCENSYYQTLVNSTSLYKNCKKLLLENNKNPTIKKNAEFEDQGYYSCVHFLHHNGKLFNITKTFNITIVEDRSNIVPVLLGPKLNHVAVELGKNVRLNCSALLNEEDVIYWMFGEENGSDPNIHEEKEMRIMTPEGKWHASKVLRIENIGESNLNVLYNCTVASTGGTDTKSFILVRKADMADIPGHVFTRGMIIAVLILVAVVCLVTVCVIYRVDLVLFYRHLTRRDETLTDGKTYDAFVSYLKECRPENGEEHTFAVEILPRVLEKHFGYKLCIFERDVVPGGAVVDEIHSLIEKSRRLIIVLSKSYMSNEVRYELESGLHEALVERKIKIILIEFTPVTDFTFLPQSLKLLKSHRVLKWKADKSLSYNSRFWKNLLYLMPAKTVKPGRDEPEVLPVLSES
T1 sequence (looked up) 2: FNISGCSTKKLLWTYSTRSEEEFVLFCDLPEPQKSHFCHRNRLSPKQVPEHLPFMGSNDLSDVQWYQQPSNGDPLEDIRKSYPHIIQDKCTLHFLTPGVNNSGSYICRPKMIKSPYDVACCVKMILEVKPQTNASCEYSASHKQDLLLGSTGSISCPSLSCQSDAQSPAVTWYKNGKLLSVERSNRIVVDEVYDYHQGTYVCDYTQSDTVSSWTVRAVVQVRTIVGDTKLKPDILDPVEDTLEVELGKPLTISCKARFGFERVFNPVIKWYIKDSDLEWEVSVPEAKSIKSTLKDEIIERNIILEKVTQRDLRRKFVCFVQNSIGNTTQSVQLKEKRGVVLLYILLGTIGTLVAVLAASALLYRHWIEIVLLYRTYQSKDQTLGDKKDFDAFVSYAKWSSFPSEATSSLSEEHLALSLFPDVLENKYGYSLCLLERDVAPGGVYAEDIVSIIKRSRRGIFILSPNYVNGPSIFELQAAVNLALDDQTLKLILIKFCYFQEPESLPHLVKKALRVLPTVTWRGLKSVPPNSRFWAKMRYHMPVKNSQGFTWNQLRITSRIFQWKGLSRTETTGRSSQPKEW
Put plainly: cell-based or functional assay.
In the case of B1, the “EC50 (pM), PBMC IFN gamma assay, average” value came to 16.8 pM; the “EC50 (pM), PBMC IFN gamma assay, run 1” value amounted to 17.8 pM; the “EC50 (pM), PBMC IFN gamma assay, run 2” value came out at 21.6 pM; the “EC50 (pM), PBMC IFN gamma assay, run 3” value was 10.9 pM. For the same molecule, the “PBMC IFN gamma EC50 relative to WT-IL18, average” value came to 0.12; the “PBMC IFN gamma EC50 relative to WT-IL18, run 1” value is 0.07; the “PBMC IFN gamma EC50 relative to WT-IL18, run 2” value was 0.21; the “PBMC IFN gamma EC50 relative to WT-IL18, run 3” value amounted to 0.07.

As for B2, the “EC50 (pM), PBMC IFN gamma assay, average” value is 84.4 pM; the “EC50 (pM), PBMC IFN gamma assay, run 1” value came to 90.3 pM; the “EC50 (pM), PBMC IFN gamma assay, run 2” value was determined as 121 pM; the “EC50 (pM), PBMC IFN gamma assay, run 3” value is 41.6 pM. The “PBMC IFN gamma EC50 relative to WT-IL18, average” value was found to be 0.6; the “PBMC IFN gamma EC50 relative to WT-IL18, run 1” value came out at 0.37; the “PBMC IFN gamma EC50 relative to WT-IL18, run 2” value was found to be 1.15; the “PBMC IFN gamma EC50 relative to WT-IL18, run 3” value amounted to 0.26.

For the molecule B3, the “EC50 (pM), PBMC IFN gamma assay, average” value was found to be 906 pM; the “EC50 (pM), PBMC IFN gamma assay, run 1” value was 810 pM; the “EC50 (pM), PBMC IFN gamma assay, run 2” value was 1120 pM; the “EC50 (pM), PBMC IFN gamma assay, run 3” value amounted to 784 pM. For the same molecule, the “PBMC IFN gamma EC50 relative to WT-IL18, average” value was 6.3; the “PBMC IFN gamma EC50 relative to WT-IL18, run 1” value stood at 3.36; the “PBMC IFN gamma EC50 relative to WT-IL18, run 2” value amounted to 10.7; the “PBMC IFN gamma EC50 relative to WT-IL18, run 3” value was determined as 4.85.

As for B4, the “EC50 (pM), PBMC IFN gamma assay, average” value turned out to be 195 pM; the “EC50 (pM), PBMC IFN gamma assay, run 1” value is 209 pM; the “EC50 (pM), PBMC IFN gamma assay, run 2” value worked out at 214 pM; the “EC50 (pM), PBMC IFN gamma assay, run 3” value was determined as 162 pM. The “PBMC IFN gamma EC50 relative to WT-IL18, average” value came to 1.3; the “PBMC IFN gamma EC50 relative to WT-IL18, run 1” value amounted to 0.87; the “PBMC IFN gamma EC50 relative to WT-IL18, run 2” value worked out at 2.04; the “PBMC IFN gamma EC50 relative to WT-IL18, run 3” value is 1.

For B5, the “EC50 (pM), PBMC IFN gamma assay, average” value was 60.6 pM; the “EC50 (pM), PBMC IFN gamma assay, run 1” value was determined as 47.3 pM; the “EC50 (pM), PBMC IFN gamma assay, run 2” value worked out at 75 pM; the “EC50 (pM), PBMC IFN gamma assay, run 3” value is 59.4 pM. For the same molecule, the “PBMC IFN gamma EC50 relative to WT-IL18, average” value worked out at 0.43; the “PBMC IFN gamma EC50 relative to WT-IL18, run 1” value was 0.2; the “PBMC IFN gamma EC50 relative to WT-IL18, run 2” value came out at 0.71; the “PBMC IFN gamma EC50 relative to WT-IL18, run 3” value was 0.37.
